These results are taken from paper PMC3602352.

Data set [1] has as its target L68A CzrA (Staphylococcus aureus). Put plainly: SEC. Background: Size exclusion chromatography separates by hydrodynamic size, large species first.
Data set [2] addresses L68V CzrA (Staphylococcus aureus). As to the kind of experiment: SEC.
The target in data set [3] is V66A CzrA (Staphylococcus aureus). Put plainly: SEC.
The target of data set [4] is V66A/L68V CzrA (Staphylococcus aureus). Put plainly: SEC.
The target of another data set is H96C CzrA (Staphylococcus aureus, UniProt O85142 1-106, H96C). As to the kind of experiment: fluorescence anisotropy. On the technique in general: Polarisation of emitted light reports the rotation of a fluorescent probe.
The target of the next data set is V66A CzrA (Staphylococcus aureus, UniProt O85142 1-106, V66A). Put plainly: fluorescence anisotropy.

With L68A CzrA (natural protein), the stoichiometry N in data set [1] worked out at 2. In the case of L68V CzrA (natural protein), the stoichiometry N in data set [2] was 2. The molecule V66A CzrA (natural protein) had a stoichiometry N in data set [3] of 2. For the molecule V66A/L68V CzrA (natural protein), in data set [4], the stoichiometry N is 2.

B1: 28-bp native CzrO (dsDNA)
DNA 1: TAATATATGAACAAATATTCAGATGAAA
DNA 2: TTTCATCTGAATATTTGTTCATATATTA
As for B1, the binding result in the data set with H96C CzrA is listed as “binds”. In the data set with V66A CzrA, the binding signal was 460 fold tighter than Zn2 wild-type CzrA.

Broadly, the stoichiometry N is the number of molecules, sites or subunits per partner or assembly.
